Reference: publication PMC13379236 (Cell reports, 2026)
Numbering of substitutions follows the chain as printed. Names and notes keep the numbering of the source. “Also recorded” adds a separate entry of the source.

B1: NLRP1 Gly/N-degron: C-terminal fragment generated by 3C cleavage, which exposes the Gly/N-degron, begins at glycine-131 (protein)
chain: GSERRVLRQLPDTSGRRWREISASLLYQALPSSPDHESPSQESPNAPTSTAVLGSWGSPPQPSLAPREQEAPGTQWPLDETSGIYYTEIREREREKSEKGRPPWAAVVGTPPQAHTSLQPHHHPWEPSVRESLCSTWPWKNEDFNQKFTQLLLLQRPHPRSQDPLVKRSWPDYVEENRGHLIEIRDLFGPGLDTQEPRIVILQGAAGIGKSTLARQVKEAWGRGQLYGDRFQHVFYFSCRELAQSKVVSLAELIGKDGTATPAPIRQILSRPERLLFILDGVDEPGWVLQEPSSELCLHWSQPQPADALLGSLLGKTILPEASFLITARTTALQNLIPSLEQARWVEVLGFSESSRKEYFYRYFTDERQAIRAFRLVKSNKELWALCLVPWVSWLACTCLMQQMKRKEKLTLTSKTTTTLCLHYLAQALQAQPLGPQLRDLCSLAAEGIWQKKTLFSPDDLRKHGLDGAIISTFLKMGILQEHPIPLSYSFIHLCFQEFFAAMSYVLEDEKGRGKHSNCIIDLEKTLEAYGIHGLFGASTTRFLLGLLSDEGEREMENIFHCRLSQGRNLMQWVPSLQLLLQPHSLESLHCLYETRNKTFLTQVMAHFEEMGMCVETDMELLVCTFCIKFSRHVKKLQLIEGRQHRSTWSPTMVVLFRWVPVTDAYWQILFSVLKVTRNLKELDLSGNSLSHSAVKSLCKTLRRPRCLLETLRLAGCGLTAEDCKDLAFGLRANQTLTELDLSFNVLTDAGAKHLCQRLRQPSCKLQRLQLVSCGLTSDCCQDLASVLSASPSLKELDLQQNNLDDVGVRLLCEGLRHPACKLIRLGLDQTTLSDEMRQELRALEQEKPQLLIFSRRKPSVMTPTEGLDTGEMSNSTSSLKRQRLGSERAASHVAQANLKLLDVSKIFPIAEIAEESSPEVVPVELLCVPSPASQGDLHTKPLGTDDDFWGPTGPVATEVVDKEKNLYRVHFPVAGSYRWPNTGLCFVMREAVTVEIEFCVWDQFLGEINPQHSWMVAGPLLDIKAEPGAVEAVHLPHFVALQGGHVDTSLFQMAHFKEEGMLLEKPARVELHHIVLENPSFSPLGVLLKMIHNALRFIPVTSVVLLYHRVHPEEVTFHLYLIPSDCSIRKAIDDLEMKFQFVRIHKPPPLTPLYMGCRYTVSGSGSGMLEILPKELELCYRSPGEDQLFSEFYVGHLGSGIRLQVKDKKDETLVWEALVKPGDLMPATTLIPPARIAVPSPLDAPQLLHFVDQYREQLIARVTSVEVVLDKLHGQVLSQEQYERVLAENTRPSQMRKLFSLSQSWDRKCKDGLYQALKETHPHLIMELWEKGSKKGLLPLSS
B2: E133K: E133K mutation of NLRP1 (residue E3 of the Gly/N-degron) (protein)
chain: B1 chain with E3K

System: ZYG11B
Format: cell-based, human

Molecule	binding to ZYG11B Extended Surface I mutants	binding to ZYG11B Gly-pocket mutants	binding to ZYG11B R466A (Extended Surface II)	interaction of NLRP1 mutants with ZYG11B
B1	decreases the binding	abolishes the binding	relatively strong reduction	
B2				decreases the interaction; also recorded: reduced binding to ZYG11B
